Test results taken from article doi:10.1101/313882, “Cryptic adaptor protein interactions regulate DNA replication initiation” (bioRxiv, 2018).
Positions count from the first letter of the chain named. Names and notes keep the numbering of the source.

B1: purified DnaD^WHD F51A (B. subtilis) (domain or fragment, UniProt P39787 1-128, looked up)
chain: MKKQQFIDMQEQGTSTIPNLLLTHYKQLGLNETELILLLKIKMHLEKGSYAPTPNQLQEGMSISVEECTNRLRMFIQKGFLFIEECEDQNGIKFEKYSLQPLWGKLYEYIQLAQNQTQERKAEGEQKS
notes: DnaD, B. subtilis, winged helix domain, amino acids 1-128, F51A; source: E. coli BL21 (DE3), purified (amylose, Ulp1 digestion, HiTrap Q, Sephacryl S-200); not shown: HIS6, N-terminal, cleaved; MBP, N-terminal, cleaved; SUMO, N-terminal, cleaved
B2: purified DnaD^WHD I83A (B. subtilis) (domain or fragment, UniProt P39787 1-128, looked up)
chain: B1 chain with A51F, I83A
notes: DnaD, B. subtilis, winged helix domain, amino acids 1-128, I83A; source: E. coli BL21 (DE3), purified (amylose, Ulp1 digestion, HiTrap Q, Sephacryl S-200); not shown: HIS6, N-terminal, cleaved; MBP, N-terminal, cleaved; SUMO, N-terminal, cleaved
B3: purified DnaD^WHD, wild type (B. subtilis) (domain or fragment, UniProt P39787 1-128, looked up)
chain: B1 chain with A51F
notes: DnaD, B. subtilis, winged helix domain, amino acids 1-128; native N-terminus after Ulp1; also called WT; source: E. coli BL21 (DE3), purified (amylose, Ulp1 digestion, HiTrap Q, Sephacryl S-200); not shown: HIS6, N-terminal, cleaved; MBP, N-terminal, cleaved; SUMO, N-terminal, cleaved
B4: purified DnaD^WHD ΔNT variant (B. subtilis) (domain or fragment, UniProt P39787 19-128, looked up)
chain: NLLLTHYKQLGLNETELILLLKIKMHLEKGSYFPTPNQLQEGMSISVEECTNRLRMFIQKGFLFIEECEDQNGIKFEKYSLQPLWGKLYEYIQLAQNQTQERKAEGEQKS
notes: DnaD, B. subtilis, winged helix domain (1-128) without the N-terminal extension (residues 1-18); The limits 19-128 are worked out from the printed extension (1-18) and the limits of DnaD^WHD (1-128); the purification is that told for DnaD^WHD and its variants; source: E. coli BL21 (DE3), purified (amylose, Ulp1 digestion, HiTrap Q, Sephacryl S-200); not shown: HIS6, N-terminal, cleaved; MBP, …

Legend:
[1] = target: the molecule itself; test: cross-linking; purified DnaD^WHD or variant at 16 uM with 0.03%, 0.06%, 0.12% glutaraldehyde; 20 mM HEPES pH 7.7, 150 mM NaCl, 1 mM DTT, 1 mM EDTA, 5% glycerol; 15 minutes at room temperature; SDS-polyacrylamide gel, coomassie blue
[2] = target: the molecule itself; test: SEC; size exclusion chromatogram of wild type DnaD^WHD or the ΔNT variant, absorbance at 280 nm (S2 Fig B)

Protein	stoichiometry N [1]	other results
B1	4	
B2	4	
B3		binding result [1]: binds
B4		stoichiometry N [2]: 2
